Test results: US20250326823A1

Experiments:
Experiment in all cases: cell-based or functional assay
[1] = biological target: SARS-CoV-2 spike (S) protein, variant JN.1.13.1 (SARS-CoV-2)
[2] = biological target: SARS-CoV-2 spike (S) protein, variant KP.2 (SARS-CoV-2)
[3] = biological target: SARS-CoV-2 spike (S) protein, variant KP.2.3 (SARS-CoV-2)
[4] = biological target: SARS-CoV-2 spike (S) protein, variant LB.1 (SARS-CoV-2)
[5] = biological target: SARS-CoV-2 spike (S) protein, D614G (SARS-CoV-2) (UniProt P0DTC2)
[6] = biological target: SARS-CoV-2 spike (S) protein, variant BA.2.86 (SARS-CoV-2)
[7] = biological target: SARS-CoV-2 spike (S) protein, variant CH.1.1 (SARS-CoV-2)
[8] = biological target: SARS-CoV-2 spike (S) protein, variant EG.5.1 (SARS-CoV-2)
[9] = biological target: SARS-CoV-2 spike (S) protein, variant JN.1 (SARS-CoV-2)
[10] = biological target: SARS-CoV-2 spike (S) protein, variant KP.2 (SARS-CoV-2); remark: listed apart in the source
[11] = biological target: SARS-CoV-2 spike (S) protein, variant KP.2.3 (SARS-CoV-2); remark: listed apart in the source
[12] = biological target: SARS-CoV-2 spike (S) protein, variant KP.3 (SARS-CoV-2)
[13] = biological target: SARS-CoV-2 spike (S) protein, variant KP.3.1.1 (SARS-CoV-2)
[14] = biological target: SARS-CoV-2 spike (S) protein, variant LB.1 (SARS-CoV-2); remark: listed apart in the source
[15] = biological target: SARS-CoV-2 spike (S) protein, variant XEC (SARS-CoV-2)
[16] = biological target: SARS-CoV-2 D614G spike (S) protein (SARS-CoV-2) (UniProt P0DTC2)
[17] = biological target: SARS-CoV-2 spike (S) protein, variant BA.1 (SARS-CoV-2) (UniProt P0DTC2)
[18] = biological target: SARS-CoV-2 spike (S) protein, variant BA.4/5 (SARS-CoV-2) (UniProt P0DTC2)
[19] = biological target: SARS-CoV-2 spike (S) protein, variant BQ.1.1 (SARS-CoV-2) (UniProt P0DTC2)
[20] = biological target: SARS-CoV-2 spike (S) protein, variant FL.1.5.1 (SARS-CoV-2)
[21] = biological target: SARS-CoV-2 spike (S) protein, variant HK.3 (SARS-CoV-2)
[22] = biological target: SARS-CoV-2 spike (S) protein, variant HV.1 (SARS-CoV-2)
[23] = biological target: SARS-CoV-2 spike (S) protein, variant JF.1 (SARS-CoV-2)
[24] = biological target: SARS-CoV-2 spike (S) protein, variant XBB.1 (SARS-CoV-2) (UniProt P0DTC2)
[25] = biological target: SARS-CoV-2 spike (S) protein, variant XBB.1.16 (SARS-CoV-2) (UniProt P0DTC2)
[26] = biological target: SARS-CoV-2 spike (S) protein, variant XBB.1.5 (SARS-CoV-2) (UniProt P0DTC2)
[27] = biological target: SARS-CoV-2 spike (S) protein, variant XBC.1 (SARS-CoV-2) (UniProt P0DTC2)

What does the source list for ADG20 (antibody)?
pseudovirus neutralization IC50 [1]: > 67 nM; pseudovirus neutralization IC80 [1]: > 67 nM; pseudovirus neutralization IC50 [2]: > 67 nM; pseudovirus neutralization IC80 [2]: > 67 nM; pseudovirus neutralization IC50 [3]: > 67 nM; pseudovirus neutralization IC80 [3]: > 67 nM; pseudovirus neutralization IC50 [4]: > 67 nM; pseudovirus neutralization IC80 [4]: > 67 nM; neutralization IC50 [5]: 3 ng/mL; neutralization IC50 [6]: > 10 µg/mL; neutralization IC50 [7]: 2.06 µg/mL; neutralization IC50 [8]: > 10 µg/mL; neutralization IC50 [9]: > 10 µg/mL; neutralization IC50 [10]: > 10 µg/mL; neutralization IC50 [11]: > 10 µg/mL; neutralization IC50 [12]: > 10 µg/mL; neutralization IC50 [13]: > 10 µg/mL; neutralization IC50 [14]: > 10 µg/mL; neutralization IC50 [15]: > 10 µg/mL

AZD3152 (antibody) was tested. Which pseudovirus neutralization IC50 [16] did it give?
The pseudovirus neutralization IC50 was 15 ng/mL.

And the pseudotyped neutralization potency IC50 [17]?
The pseudotyped neutralization potency IC50 was 0.123 nM.

What about the pseudotyped neutralization potency IC80 [17] of the same substance?
The pseudotyped neutralization potency IC80 was 0.313 nM.

And the pseudotyped neutralization potency IC50 [18]?
Its pseudotyped neutralization potency IC50 is 0.102 nM.

And the pseudotyped neutralization potency IC80 [18]?
The pseudotyped neutralization potency IC80 was 0.266 nM.

And the pseudotyped neutralization potency IC50 [19]?
Its pseudotyped neutralization potency IC50 is 0.392 nM.

What about the pseudotyped neutralization potency IC80 [19] of the same substance?
Its pseudotyped neutralization potency IC80 is 0.944 nM.

What about the IC50, pseudovirus neutralization [20] of the same substance?
Its IC50, pseudovirus neutralization is > 67 nM.

And the IC80, pseudovirus neutralization [20]?
Its IC80, pseudovirus neutralization is > 67 nM.

And the IC50, pseudovirus neutralization [21]?
The IC50, pseudovirus neutralization was > 67 nM.

What about the IC80, pseudovirus neutralization [21] of the same substance?
The IC80, pseudovirus neutralization was > 67 nM.

What about the IC50, pseudovirus neutralization [22] of the same substance?
Its IC50, pseudovirus neutralization is > 67 nM.

What about the IC80, pseudovirus neutralization [22] of the same substance?
Its IC80, pseudovirus neutralization is > 67 nM.

What about the IC50, pseudovirus neutralization [23] of the same substance?
The IC50, pseudovirus neutralization was > 67 nM.

What about the IC80, pseudovirus neutralization [23] of the same substance?
Its IC80, pseudovirus neutralization is > 67 nM.

What about the pseudotyped neutralization potency IC50 [24] of the same substance?
Its pseudotyped neutralization potency IC50 is 0.096 nM.

What about the pseudotyped neutralization potency IC80 [24] of the same substance?
The pseudotyped neutralization potency IC80 was 0.302 nM.

And the pseudotyped neutralization potency IC50 [25]?
The pseudotyped neutralization potency IC50 was 0.092 nM.

What about the pseudotyped neutralization potency IC80 [25] of the same substance?
The pseudotyped neutralization potency IC80 was 0.381 nM.

And the pseudotyped neutralization potency IC50 [26]?
The pseudotyped neutralization potency IC50 was 0.12 nM.

And the pseudotyped neutralization potency IC80 [26]?
Its pseudotyped neutralization potency IC80 is 0.308 nM.

What about the pseudotyped neutralization potency IC50 [27] of the same substance?
The pseudotyped neutralization potency IC50 was 0.0322 nM.

And the pseudotyped neutralization potency IC80 [27]?
Its pseudotyped neutralization potency IC80 is 0.209 nM.

What about the neutralization IC50 [5] of the same substance?
The neutralization IC50 was 15 ng/mL.

And the neutralization IC50 [6]?
Its neutralization IC50 is 0.053 µg/mL.

And the neutralization IC50 [7]?
The neutralization IC50 was 0.045 µg/mL.

And the neutralization IC50 [8]?
Its neutralization IC50 is > 10 µg/mL.

And the neutralization IC50 [9]?
The neutralization IC50 was 0.766 µg/mL.

And the neutralization IC50 [10]?
The neutralization IC50 was > 10 µg/mL.

And the neutralization IC50 [11]?
Its neutralization IC50 is > 10 µg/mL.

And the neutralization IC50 [12]?
The neutralization IC50 was > 10 µg/mL.

What about the neutralization IC50 [13] of the same substance?
The neutralization IC50 was > 10 µg/mL.

And the neutralization IC50 [14]?
Its neutralization IC50 is > 10 µg/mL.

What about the neutralization IC50 [15] of the same substance?
The neutralization IC50 was > 10 µg/mL.
